Tests used:
[1] = target: T1, rat/human hybrid NPY Y5 receptor (rat/human chimera); experiment: competition with 0.1 nM [125I]PYY, membranes of COS1 cells transiently expressing the receptor
T1 chain: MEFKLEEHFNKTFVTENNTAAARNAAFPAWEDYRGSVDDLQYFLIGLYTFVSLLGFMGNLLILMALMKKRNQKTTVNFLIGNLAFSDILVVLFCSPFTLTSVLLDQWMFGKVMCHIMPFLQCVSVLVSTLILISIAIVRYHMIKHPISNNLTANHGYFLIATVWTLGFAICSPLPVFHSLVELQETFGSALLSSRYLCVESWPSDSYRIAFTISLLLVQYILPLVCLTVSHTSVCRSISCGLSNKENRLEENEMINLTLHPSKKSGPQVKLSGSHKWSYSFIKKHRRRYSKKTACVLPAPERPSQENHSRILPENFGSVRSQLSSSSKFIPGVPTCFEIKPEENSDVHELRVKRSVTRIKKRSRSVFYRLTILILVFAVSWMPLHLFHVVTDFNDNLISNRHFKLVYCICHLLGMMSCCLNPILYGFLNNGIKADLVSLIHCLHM
Protocol: (§1) PYY and 2.5–5 ug of membrane protein (50 ul final volume). […] PYY and various concentrations of competing peptides (200 ul final volume). […] Binding assays were incubated at room temperature for 90 minutes and were terminated by rapid vacuum filtration through glass fiber filters in 96-well format (Multiscreen FB Filter Plates, Millipore, Bedford, Mass. or Unifilter-96 GF/C, Packard, Meriden, Conn.) Prior to filtration the glass fiber filters were pretreated with 100 ul of 0.3 % polyethylenimine. Each filter was then washed 3 times with 100 ul of PBS. Radioactivity trapped on the filters was then counted by standard gamma counting techniques.
(§2) Peptide affinities were measured in competition binding assays with membranes from COS1 cells transiently expressing the human Y_5 and rat/human hybrid Y_5 receptors.

[2] = target: T2, human NPY Y5 receptor (human, UniProt Q15761); experiment: as above
Protocol: as §1, §2

[3] = target: T1, rat/human hybrid NPY Y5 receptor; experiment: radioligand binding at 100 pM [125I]PYY, membranes of COS1 cells transiently expressing the construct
Protocol: as §1
(§3) All receptors were expressed transiently in COS1 cells.

[4] = target: T2, human NPY Y5 receptor; experiment: as above
Protocol: as §1, §3

[5] = target: rat NPY Y5 receptor expressed from pCR3.1-rY5A (rat, UniProt Q63634); experiment: as above
Protocol: as §1, §3

Binder	Ki [1] [nM]	Ki [2] [nM]	Level of Expression (fmol/mg protein), radioligand bound at 100 pM [3] [fmol/mg protein]	Level of Expression (fmol/mg protein), radioligand bound at 100 pM [4] [fmol/mg protein]	Level of Expression (fmol/mg protein), radioligand bound at 100 pM [5] [fmol/mg protein]
APLEPVYPGDNATPEQMAQYAADLRRYINMLTRPRY (ligand) [Human PP]	2.86				
APLEPMYPGDYATHEQRAQYETQLRRYINTLTRPRY (ligand) [Rat PP]	75.6	60			
[125I] porcine peptide YY (ligand, 125I label) peptide: not shown			298	103	100
